Measurements as given in US20220241369A1, “COMPOSITIONS AND METHODS OF MODULATING INFLAMMATION” (La Jolla Institute for Allergy and Immunology, priority 2018, published 2022).

Columns and labels:
[1] = tested on: OVA-induced food allergy (allergic diarrhea); assay: Therapeutic i.v. treatment with HRF inhibitor after allergic diarrhea is established; type: in vivo, mouse; conditions: i.v. 30 μg twice
Description: FIGS. 5A-5F show therapeutic treatment with HRF inhibitor ameliorates the severity of food allergy. Mice were sensitized and i.g. challenged with OVA. By the seventh OVA challenge, all the mice suffered diarrhea. These mice were pretreated i.v. with 30 μg of HRF-2CA (2CA) or PBS (OVA) before challenged with OVA two more times. (FIG. 5A) Procedure scheme. (FIG. 5B) Diarrhea severity (n=11 for OVA, n=13 for HRF-2CA and n=4 for non-sensitized control (not shown); pooled data of two independent experiments). ***: p<0.001 by two-way ANOVA. (FIG. 5C) Total and OVA-specific IgE and IgG1 concentration in sera were measured by ELISA. (FIG. 5D) mMCP-1 in sera was measured by ELISA. (FIG. 5E) Sections of jejunum were stained with chloroacetate esterase. (FIG. 5C—FIG. 5E) *, **, ***: p<0.05, p<0.01, p<0.001 by Student's t-test. (FIG. 5F) Similar i.v. therapeutic treatment of allergic mice was conducted with 30 μg of synthetic N19 peptide (n=12 for OVA and n=12 for pepN19; pooled data of two independent experiments). […] by two-way ANOVA.
Mice were i.p. sensitized with OVA (50 μg/mouse) plus alum on days 0 and 14. From day 28, mice were i.g. challenged with OVA (25 or 50 mg) or PBS (control) three times a week. Before each challenge, mice were starved for 3 h, then i.g. pretreated with GST, GST-N19 (100 μg/mouse), synthetic N19 peptide, or HRF-2CA. The development of diarrhea was monitored for 90 min after OVA challenge. Diarrhea severity (30) was based on states of stool: solid (score 0), funicular (score 1), slurry (score 2), and watery (score 3).
Applicant next tested whether HRF inhibitors modulate food allergy after diarrhea has begun. […] One cohort of mice was intravenously (i.v.) treated twice with PBS followed by OVA challenge, and the other were i.v. treated twice with 30 μg of HRF-2CA followed by OVA challenge (FIG. 5A).

[2] = tested on: sensitization phase of murine food allergy; assay: Pretreatment with HRF inhibitor before sensitization with OVA plus alum; type: in vivo, mouse; conditions: 100 μg i.g. one day before i.p. immunization on days 0 and 14
Description: Mice were i.g. pretreated with 100 μg of GST, GST-N19, HRF-2CA or PBS (OVA) one day before i.p. immunization with OVA plus alum on days 0 and 14. From day 28, mice were i.g. challenged with OVA three times a week. (FIG. 9A) Procedure scheme. (FIG. 9B) The development of diarrhea was monitored after OVA challenge. (n=5 for OVA, n=4 for GST, n=5 for N19, n=5 for 2CA, and n=3 each for unsensitized pretreated groups (not shown)). (FIG. 9C, FIG. 9D) Total IgE and IgG1 were measured by ELISA.
Whether HRF inhibitors affect the sensitization phase of food allergy was tested.

[3] = tested on: OVA-induced allergic diarrhea; assay: Food allergy experiments in WT and FceRIa-/-, FcgRIIB-/-, Enpp3-/- mice; type: in vivo, mouse; conditions: WT and mutant mice, via FcεRI
From the text: FIGS. 10A-10C show HRF-2CA suppresses allergic diarrhea via FcεRI. WT and mutant mice were subjected to food allergy experiments as described in the FIG. 1 legend. FceRIa^−/− (n=4-5 each for group with sensitization and n=3 each for unsensitized group (Cont; no diarrhea was observed))(FIG. 10A), FcgRIIB^−/− (n=9-10 each for groups with sensitization and n=4-5 each for unsensitized groups (Cont; no diarrhea was observed); pooled data of two independent experiments) (FIG. 10B), and Enpp3^−/− (n=9-10 each for groups with sensitization and n=7 each for unsensitized groups (Cont; no diarrhea was observed); pooled data of two independent experiments) (FIG. 10C) mice along with WT mice were used. *, ***: p<0.05, p<0.001 by Student's t-test.
BALB/c mice were bred in the animal facility of RIKEN IMS. Frozen zygotes of FceRIa^−/− mice were donated by Takashi Saito (RIKEN IMS) and bred at RIKEN IMS. FcgRIIB^−/− mice provided by Toshiyuki Takai (Tohoku University) were also bred at RIKEN IMS. Food allergy experiments with Enpp3^−/− mice were conducted at Osaka University. All genetically modified mice were backcrossed to BALB/c background for more than ten generations.
Mice were i.p. sensitized with OVA (50 μg/mouse) plus alum on days 0 and 14. […] The development of diarrhea was monitored for 90 min after OVA challenge. […]

[4] = target: IgE on mucosal (IgE+ mMCP-1+, c-Kit+) mast cells of the small intestine of OVA-sensitized/OVA-challenged mice (mouse); assay: confocal microscopy of jejunum, anti-His tag staining (data not shown)

B1: HRF-2CA-His6, a monomeric mutant of mouse HRF (protein)
chain: MIIYRDLISHDELFSDIYKIREIADGLALEVEGKMVSRTEGAIDDSLIGGNASAEGPEGEGTESTVVTGVDIVMNHHLQETSFTKEAYKKYIKDYMKSLKGKLEEQKPERVKPFMTGAAEQIKHILANFNNYQFFIGENMNPDGMVALLDYREDGVTPFMIFFKDGLEMEKAHHHHHH
clinical scores (diarrhea severity, severity of food allergy) ([1]; after diarrhea by the 7th OVA challenge): significantly reduced | mucosal mast cells ([1]; therapeutic): did not reduce | serum mMCP-1 levels ([1]; therapeutic): modestly but significantly reduced | total IgE, IgG1 ([1]; therapeutic): did not reduce | sensitization phase of murine food allergy [2]: do not affect | allergic diarrhea [3]: suppresses | percent of IgE+ mMCP-1+ mast cells targeted [4]: 64%
